One assay addresses endogenous mouse tau (mouse, UniProt P10637-2 2-430, limits assumed). As to the kind of experiment: Western blot of mouse brain extracts. The source says: FIG. 3: Analysis of the novel mAbs on samples of transgenic mice and human brain. A) Western blot analysis of brain extracts from control mice (FVB), knock-out mice and transgenic (Tg) mice expressing a clinical mutant of human tau (Tau-P301L). The age of the mice is indicated between brackets. The arrow on the second blot indicates high molecular weight tau complexes. The antibodies used are ADx215 (YT1.15), ADx210 (YT1.10) and the commercial phosphorylation-specific antibody AT100 (exposure time of 30 min for ADx210 (YT1.10) and AT100, and 30 sec for ADx215 (YT1.15)). B) Tau epitope sequence recognized by ADx201 (YT1.1) and ADx215 (YT1.15). C) Western blot analysis of brain extracts from brain extracts obtained from a healthy person (non-AD) and an AD patient using the Mab ADx215 (YT1.15) (exposure time 2 min.). The brain regions from which the extracts were prepared are indicated. As control served brain extracts obtained from the hippocampus and cortex of the tau Tg mice Tau22. The arrow indicates high molecular weight tau complexes present in samples from AD brain. […]
Furthermore, the high affinity Mab ADx215 (YT1.15) specifically detected high molecular weight tau complexes in brain extracts of both Tg mice (Fig. A, C) and a late stage AD patient (data provided by L. Buée, Inserm U837, U. Lille, France; Fig. C).

The target in assay [1] is T1, recombinant HIS-tagged tau obtained from E. coli (UniProt P10636-8 1-441, limits assumed).
T1 construct: also called E. coli-produced recombinant tau; recombinant non-phosphorylated tau purified from bacteria
Description: Western blot. From the text:
FIG. 2: Selectivity for tau aggregates and phosphorylation dependency of anti-tau mAbs of the invention. A) Western blot analysis of recombinant HIS-tagged tau obtained from E. coli and protein extracts obtained from control and humanized yeast strains using the commercial pan-tau antibody Tau-5 and ADx210 mAb as indicated. The number between brackets refers to the exposure time. The solid bar refers to high molecular weight and oligomeric tau and the small arrow in the picture of ADx210 to a presumable tau dimer. B) Western blot analysis of purified tau obtained from the pho85Δ strain before and after treatment with shrimp alkaline phosphatase (SAP) following different time intervals as indicated. Recombinant HIS-tagged tau obtained from E. coli served as control. The pan-tau antibody Tau-5, the phosphorylation-specific antibody AT270, and the antibody BT2 recognizing non-phosphorylated tau, were used in addition to the novel mAbs ADx215 and ADx210.
The phosphorylation specificity was initially tested on extracts obtained from the humanized wild type yeast strain and its congenic mds1Δ and pho85Δ mutants that display reduced and increased tau phosphorylation. Recombinant tau produced by E. coli served as control.
(Immunoblotting shows a protein as a band on a membrane.)

Chain of endogenous mouse tau (P10637 other isoform, or with tags, fused parts or gaps limits assumed): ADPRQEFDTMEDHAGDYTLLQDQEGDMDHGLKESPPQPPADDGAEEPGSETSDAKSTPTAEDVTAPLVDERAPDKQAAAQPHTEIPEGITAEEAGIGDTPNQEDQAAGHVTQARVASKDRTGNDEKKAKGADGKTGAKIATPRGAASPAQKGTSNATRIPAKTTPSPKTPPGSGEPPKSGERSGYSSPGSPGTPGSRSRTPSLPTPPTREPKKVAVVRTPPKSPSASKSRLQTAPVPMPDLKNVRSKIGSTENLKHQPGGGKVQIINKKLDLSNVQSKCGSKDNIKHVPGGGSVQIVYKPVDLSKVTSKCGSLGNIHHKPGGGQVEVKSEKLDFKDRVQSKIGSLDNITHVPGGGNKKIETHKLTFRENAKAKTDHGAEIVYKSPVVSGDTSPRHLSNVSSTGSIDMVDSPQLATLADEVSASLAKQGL

B1: ADx215 monoclonal antibody (hybridoma LMBP 9679CB) (antibody, IgG1, V domains shown)
VH: EVQLVESGGDLVKPGGSLKLSCAASGFNFRSYGMSWVRQTPDKRLEWVATISSGGNYTYYPDSVKGRFTISRDNAKNILYLQMSSLNSEDTALYYCTYSFYGAFDYWGQGTTLTVSS
VL: DVLMTQTPLSLPVSLGDQASISCRSSQNILHSNGNTYLEWYLQKPGQSPKLLIYKVSSRFSGVPDRFSGSGSGTDFTLKITRVEAEDLGVYYCFQGSLVPWTFGGGTKLEIRR
notes: also called YT1.15
For B1, the binding result in the assay with endogenous mouse tau is “no binding”.

B2: ADx210 monoclonal antibody (hybridoma LMBP 8347CB) (antibody, V domains shown)
VH: VQLQESGGGLVQPGGSRKLSCAASGFTFSNFGMHWVRQAPDKGLEWVAYITSGSSSIYYADTVKGRFTISRDNPKNTLFLQMTSLRSEDTAMYYCARSVPYGYGLFDYWGRGTTLTVSS
VL: DVLMTQIPVSLSVSLGDQASISCRSSESIVHSSGKTYLEWYLQKPGQSPKLLIYEVSNRFSGVPDRFSGSGSGTDFTLKISRVEAEDLGVYYCFQGSHVPWTFGGGTKLEIKR
notes: Mouse hybridoma mAb (BALB/C immunised with yeast-purified tau); constant regions are not; also called YT1.10; IGH-593
On to B2, for which the binding result (in assay [1]; with endogenous mouse tau) was “no binding” each time.
